Measured values taken from patent US10472652B2, “Chemical engineering processes and apparatus for the synthesis of compounds” (TEEWINOT T[…], priority 2013, dated 2019).

T1: THCA synthase (Cannabis sativa, UniProt Q8GTB6)
T1 construct: His-tag (C); made in house; host or cells: Pichia pastoris (PichiaPink, pPink-HC vector), secreted into the medium; cell-free T3 supernatant used
T1 sequence (Q8GTB6 29-545): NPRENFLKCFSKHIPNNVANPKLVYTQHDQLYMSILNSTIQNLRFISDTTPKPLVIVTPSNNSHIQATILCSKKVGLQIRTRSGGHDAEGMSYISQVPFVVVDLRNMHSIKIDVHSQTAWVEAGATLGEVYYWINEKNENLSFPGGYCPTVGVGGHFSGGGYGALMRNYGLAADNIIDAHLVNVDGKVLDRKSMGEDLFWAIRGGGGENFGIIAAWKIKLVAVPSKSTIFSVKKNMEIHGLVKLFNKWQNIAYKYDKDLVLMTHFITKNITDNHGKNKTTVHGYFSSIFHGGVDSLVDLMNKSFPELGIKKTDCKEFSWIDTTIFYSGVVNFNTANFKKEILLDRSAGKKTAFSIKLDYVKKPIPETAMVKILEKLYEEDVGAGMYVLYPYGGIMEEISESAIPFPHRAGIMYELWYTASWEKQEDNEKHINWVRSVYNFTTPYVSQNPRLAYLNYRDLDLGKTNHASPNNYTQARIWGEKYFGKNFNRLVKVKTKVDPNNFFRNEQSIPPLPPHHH


What follows are molecules tested against T1, THCA synthase (assay: catalytic activity of THCA synthase from independent colonies of transformed pPink yeast cells (conversion of CBGA to THCA)). Conditions: 25 μl cell free supernatant of T3 sample, 100 mM citrate buffer, 10% DMSO, final pH 5.0, 2 hours at 30° C.
Format: biochemical
Description: After 24 hours a 100 μL of the cell sample was removed to which was added 100 μL of 40% methanol to induce enzyme production. This methanolic sample was then centrifuged at 12,000 rpm for 5 minutes and the supernatant and pellet were saved as the T1 sample. A second culture sample was obtained after a 48 hour incubation period and treated with methanol as described above. After centrifugation, the supernatant and pellet are saved as the T2 sample. At 72 hours the entire incubation mixture is treated with an appropriate volume of 40% methanol. The supernatant and pellet obtained from methanolic treatment of the culture after a 72 hour incubation period is labeled as T3. The T3 supernatant was spun through an Amicon 30 kD protein filter and analyzed for protein using an SDS-PAGE gel.
The catalytic activity of THCA synthase was measured by incubating 25 μl of the cell free supernatant from a T3 sample with 25 μl of a 1 mg/ml CBGA stock in 200 μl of a 100 mM citrate buffer at pH 4.8 having 10% DMSO for 2 hours at 30° C. The final concentration of CBGA in the reaction mixture was 0.1 mg/ml and the final pH is 5.0. Table 4 illustrates the data related to the catalytic activity of THCA synthase obtained from independent colonies of transformed pPink yeast cells, namely. pPink yeast cells that were transformed using linearized THCA synthase plasmids. Culture samples that converted greater than 20% of the substrate CBGA to product THCA were selected for scale up.

Row | Molecule | % Conversion of CBGA to THCA in reaction containing 0.1 mg/ml CBGA.
1 | Pme THC #5: cell free supernatant with THCA synthase from a pPink yeast colony transformed with Pme I linearized THCA synthase plasmid (protein, UniProt Q8GTB6 29-545, looked up, yeast culture supernatant, cell free supernatant with THCA synthase from a pPink yeast colony transformed with Pme I linearized THCA synthase plasmid) Tetrahydrocannabinolic acid …: NPRENFLKCFSKHIPNNVANPKLVYTQHDQLYMSILNSTIQNLRFISDTTPKPLVIVTPSNNSHIQATILCSKKVGLQIRTRSGGHDAEGMSYISQVPFVVVDLRNMHSIKIDVHSQTAWVEAGATLGEVYYWINEKNENLSFPGGYCPTVGVGGHFSGGGYGALMRNYGLAADNIIDAHLVNVDGKVLDRKSMGEDLFWAIRGGGGENFGIIAAWKIKLVAVPSKSTIFSVKKNMEIHGLVKLFNKWQNIAYKYDKDLVLMTHFITKNITDNHGKNKTTVHGYFSSIFHGGVDSLVDLMNKSFPELGIKKTDCKEFSWIDTTIFYSGVVNFNTANFKKEILLDRSAGKKTAFSIKLDYVKKPIPETAMVKILEKLYEEDVGAGMYVLYPYGGIMEEISESAIPFPHRAGIMYELWYTASWEKQEDNEKHINWVRSVYNFTTPYVSQNPRLAYLNYRDLDLGKTNHASPNNYTQARIWGEKYFGKNFNRLVKVKTKVDPNNFFRNEQSIPPLPPHHH | 32.5%
2 | Pme THC(2) #2A: cell free supernatant with THCA synthase from a pPink yeast colony transformed with Pme I linearized THCA synthase plasmid (protein, UniProt Q8GTB6 29-545, looked up, yeast culture supernatant, cell free supernatant with THCA synthase from a pPink yeast colony transformed with Pme I linearized THCA synthase plasmid) Tetrahydrocannabinolic acid …: NPRENFLKCFSKHIPNNVANPKLVYTQHDQLYMSILNSTIQNLRFISDTTPKPLVIVTPSNNSHIQATILCSKKVGLQIRTRSGGHDAEGMSYISQVPFVVVDLRNMHSIKIDVHSQTAWVEAGATLGEVYYWINEKNENLSFPGGYCPTVGVGGHFSGGGYGALMRNYGLAADNIIDAHLVNVDGKVLDRKSMGEDLFWAIRGGGGENFGIIAAWKIKLVAVPSKSTIFSVKKNMEIHGLVKLFNKWQNIAYKYDKDLVLMTHFITKNITDNHGKNKTTVHGYFSSIFHGGVDSLVDLMNKSFPELGIKKTDCKEFSWIDTTIFYSGVVNFNTANFKKEILLDRSAGKKTAFSIKLDYVKKPIPETAMVKILEKLYEEDVGAGMYVLYPYGGIMEEISESAIPFPHRAGIMYELWYTASWEKQEDNEKHINWVRSVYNFTTPYVSQNPRLAYLNYRDLDLGKTNHASPNNYTQARIWGEKYFGKNFNRLVKVKTKVDPNNFFRNEQSIPPLPPHHH | 27.2%
3 | Pme THC(2) #25: cell free supernatant with THCA synthase from a pPink yeast colony transformed with Pme I linearized THCA synthase plasmid (protein, UniProt Q8GTB6 29-545, looked up, yeast culture supernatant, cell free supernatant with THCA synthase from a pPink yeast colony transformed with Pme I linearized THCA synthase plasmid) Tetrahydrocannabinolic acid …: NPRENFLKCFSKHIPNNVANPKLVYTQHDQLYMSILNSTIQNLRFISDTTPKPLVIVTPSNNSHIQATILCSKKVGLQIRTRSGGHDAEGMSYISQVPFVVVDLRNMHSIKIDVHSQTAWVEAGATLGEVYYWINEKNENLSFPGGYCPTVGVGGHFSGGGYGALMRNYGLAADNIIDAHLVNVDGKVLDRKSMGEDLFWAIRGGGGENFGIIAAWKIKLVAVPSKSTIFSVKKNMEIHGLVKLFNKWQNIAYKYDKDLVLMTHFITKNITDNHGKNKTTVHGYFSSIFHGGVDSLVDLMNKSFPELGIKKTDCKEFSWIDTTIFYSGVVNFNTANFKKEILLDRSAGKKTAFSIKLDYVKKPIPETAMVKILEKLYEEDVGAGMYVLYPYGGIMEEISESAIPFPHRAGIMYELWYTASWEKQEDNEKHINWVRSVYNFTTPYVSQNPRLAYLNYRDLDLGKTNHASPNNYTQARIWGEKYFGKNFNRLVKVKTKVDPNNFFRNEQSIPPLPPHHH | 31.6%
4 | Pme THC(2) #36: cell free supernatant with THCA synthase from a pPink yeast colony transformed with Pme I linearized THCA synthase plasmid (protein, UniProt Q8GTB6 29-545, looked up, yeast culture supernatant, cell free supernatant with THCA synthase from a pPink yeast colony transformed with Pme I linearized THCA synthase plasmid) Tetrahydrocannabinolic acid …: NPRENFLKCFSKHIPNNVANPKLVYTQHDQLYMSILNSTIQNLRFISDTTPKPLVIVTPSNNSHIQATILCSKKVGLQIRTRSGGHDAEGMSYISQVPFVVVDLRNMHSIKIDVHSQTAWVEAGATLGEVYYWINEKNENLSFPGGYCPTVGVGGHFSGGGYGALMRNYGLAADNIIDAHLVNVDGKVLDRKSMGEDLFWAIRGGGGENFGIIAAWKIKLVAVPSKSTIFSVKKNMEIHGLVKLFNKWQNIAYKYDKDLVLMTHFITKNITDNHGKNKTTVHGYFSSIFHGGVDSLVDLMNKSFPELGIKKTDCKEFSWIDTTIFYSGVVNFNTANFKKEILLDRSAGKKTAFSIKLDYVKKPIPETAMVKILEKLYEEDVGAGMYVLYPYGGIMEEISESAIPFPHRAGIMYELWYTASWEKQEDNEKHINWVRSVYNFTTPYVSQNPRLAYLNYRDLDLGKTNHASPNNYTQARIWGEKYFGKNFNRLVKVKTKVDPNNFFRNEQSIPPLPPHHH | 27.7%
5 | Pme THC(2) #1: cell free supernatant with THCA synthase from a pPink yeast colony transformed with Pme I linearized THCA synthase plasmid (protein, UniProt Q8GTB6 29-545, looked up, yeast culture supernatant, cell free supernatant with THCA synthase from a pPink yeast colony transformed with Pme I linearized THCA synthase plasmid) Tetrahydrocannabinolic acid …: NPRENFLKCFSKHIPNNVANPKLVYTQHDQLYMSILNSTIQNLRFISDTTPKPLVIVTPSNNSHIQATILCSKKVGLQIRTRSGGHDAEGMSYISQVPFVVVDLRNMHSIKIDVHSQTAWVEAGATLGEVYYWINEKNENLSFPGGYCPTVGVGGHFSGGGYGALMRNYGLAADNIIDAHLVNVDGKVLDRKSMGEDLFWAIRGGGGENFGIIAAWKIKLVAVPSKSTIFSVKKNMEIHGLVKLFNKWQNIAYKYDKDLVLMTHFITKNITDNHGKNKTTVHGYFSSIFHGGVDSLVDLMNKSFPELGIKKTDCKEFSWIDTTIFYSGVVNFNTANFKKEILLDRSAGKKTAFSIKLDYVKKPIPETAMVKILEKLYEEDVGAGMYVLYPYGGIMEEISESAIPFPHRAGIMYELWYTASWEKQEDNEKHINWVRSVYNFTTPYVSQNPRLAYLNYRDLDLGKTNHASPNNYTQARIWGEKYFGKNFNRLVKVKTKVDPNNFFRNEQSIPPLPPHHH | 29.1%
6 | Pme THC(2) #41: cell free supernatant with THCA synthase from a pPink yeast colony transformed with Pme I linearized THCA synthase plasmid (protein, UniProt Q8GTB6 29-545, looked up, yeast culture supernatant, cell free supernatant with THCA synthase from a pPink yeast colony transformed with Pme I linearized THCA synthase plasmid) Tetrahydrocannabinolic acid …: NPRENFLKCFSKHIPNNVANPKLVYTQHDQLYMSILNSTIQNLRFISDTTPKPLVIVTPSNNSHIQATILCSKKVGLQIRTRSGGHDAEGMSYISQVPFVVVDLRNMHSIKIDVHSQTAWVEAGATLGEVYYWINEKNENLSFPGGYCPTVGVGGHFSGGGYGALMRNYGLAADNIIDAHLVNVDGKVLDRKSMGEDLFWAIRGGGGENFGIIAAWKIKLVAVPSKSTIFSVKKNMEIHGLVKLFNKWQNIAYKYDKDLVLMTHFITKNITDNHGKNKTTVHGYFSSIFHGGVDSLVDLMNKSFPELGIKKTDCKEFSWIDTTIFYSGVVNFNTANFKKEILLDRSAGKKTAFSIKLDYVKKPIPETAMVKILEKLYEEDVGAGMYVLYPYGGIMEEISESAIPFPHRAGIMYELWYTASWEKQEDNEKHINWVRSVYNFTTPYVSQNPRLAYLNYRDLDLGKTNHASPNNYTQARIWGEKYFGKNFNRLVKVKTKVDPNNFFRNEQSIPPLPPHHH | 32.5%
